Data taken from the supplement of paper PMC10724198.
± gives the standard deviation of the averaged measurements.

tested on: Saccharomyces cerevisiae; assay: protein stability index of tFT-peptide fusion (C-terminal peptide) (PSI (0-1 scale)); higher = more stable (slower turnover); details: genetic background: wild type; temperature: 30 C
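Also: PSI is a weighted mean of sequencing reads over stability bins, variants kept only with over 10 reads, mCherry proximal and sfGFP distal, peptide attached via GGGS linker.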

Sequence	protein stability index
WLLSVYSVGTDV	0.589 ± 0.2
LASPDPSPLVVP	0.678 ± 0.02
PPPNPPPALPPL	0.664 ± 0.047
GCSLWCPDFCLC	0.665 ± 0.0097
HVAYAQSRLFYA	0.638 ± 0.094
SLLLPPRPPCPP	0.737 ± 0.024
PPDSPSPLPPPP	0.681 ± 0.054
LRYGSDQMERFI	0.717 ± 0.1
VWSGGCVSRWSG	0.745 ± 0.15
FCRKVFFALRRF	0.612 ± 0.095
VMGGWGCGVLRG	0.731 ± 0.021
LSVTGGRFSVSG	0.7174 ± 0.0063
SPLPPPPRPPLP	0.691 ± 0.039
KKEGIWEGERVG	0.724 ± 0.011
GVWGVGGGGGGR	0.634 ± 0.088
SPPLSFPTLQLF	0.625 ± 0.15
EQQTPIKKNKQR	0.826 ± 0.036
LPHLSPPPLAQL	0.686 ± 0.033
IRGGGGLGGGGV	0.703 ± 0.023
HLIRRGGSQTWT	0.713 ± 0.049
APWSVSAGCFLF	0.687 ± 0.036
PTRSEGYSVVYM	0.693 ± 0.043
LDVSGEVRVGRG	0.629 ± 0.013
GPVRIDSPFKSA	0.733 ± 0.017
PMADACPAPPPQ	0.643 ± 0.041
RFGRGAVWGLGG	0.6554 ± 0.0051

Sequence	protein stability index
GISASYTASSSG	0.642 ± 0.067
KASEALGYTSNE	0.675 ± 0.037
CRASGGVSCGAS	0.639 ± 0.046
GGVGRGGIRVMG	0.629 ± 0.062
SLVSWAGLLFWG	0.727 ± 0.058
MGVYAVVGTHGV	0.687 ± 0.079
FHTLCLGPCTVI	0.675 ± 0.035
SLTLAHPGVDLA	0.709 ± 0.021
VCGWGFLLGVFV	0.5107 ± 0.0022
RALCISCYVALR	0.5849 ± 0.00077
VFDIQLLDGGGP	0.685 ± 0.025
EGNPPTRPRSLG	0.682 ± 0.052
TRMPTRRNEQIY	0.683 ± 0.047
KSGGWLWVGGGG	0.748 ± 0.039
TGWRFVRSKGGS	0.741 ± 0.045
PLAPSSHLHPSP	0.75 ± 0.0015
FRPLPPPPPSPT	0.672 ± 0.052
AARSEVASAAGR	0.643 ± 0.016
DVLRLRSVFFCG	0.631 ± 0.047
GRPFCLGVKMFL	0.673 ± 0.035
HRLTGMRKRGRG	0.658 ± 0.066
PAVISLLPVWFT	0.691 ± 0.015
NEIENYKDIIEK	0.684 ± 0.011
NQHNARTRWLCP	0.645 ± 0.017
LPNPTSPSPQAA	0.693 ± 0.025
SCPTPRFPQCSS	0.633 ± 0.034

Sequence	protein stability index
RPTQYIYGINET	0.6525 ± 0.0034
WLGSGESVGHAG	0.686 ± 0.067
KLGLLKVRVCDG	0.608 ± 0.0061
IVGIEGYNEIKT	0.803 ± 0.27
DGYYRIVRPEAI	0.626 ± 0.018
PPAPPPLPPPTH	0.633 ± 0.049
GAEAFWAVRGGG	0.721 ± 0.009
YVGLNHYCIDAL	0.723 ± 0.054
CSMGGWPTERGI	0.6968 ± 0.0039
VVEPEVCLPSMR	0.6942 ± 0.0032
PASFAYRTLNMV	0.661 ± 0.082
EWLRYNKDKRKI	0.774 ± 0.14
GGGGATSGRLSR	0.705 ± 0.023
HSHIPPNLTYCP	0.69396 ± 0.00029
GWGGAGGGGGRV	0.652 ± 0.1
YDYASTCGSCIY	0.774 ± 0.024
PLPMPHPRSRST	0.673 ± 0.014
EGREGVFGEGRA	0.703 ± 0.031
DLPVPRPGTLQV	0.655 ± 0.045
PRPPPRRPDFGL	0.825 ± 0.16
SPSSPPSKCLSL	0.688 ± 0.039
DMHTPATDSPLP	0.783 ± 0.016
KGQPTTRVKEEW	0.654 ± 0.0091
PIRPSPPVLPPL	0.647 ± 0.11
NVLSGIDKRLTI	0.71 ± 0.053
VPPASTSPGAFP	0.6889 ± 0.003

Sequence	protein stability index
SPEVIHVVFCDL	0.697 ± 0.043
RTRPAMSRCSKR	0.704 ± 0.045
PSPLFSGSFLFF	0.716 ± 0.029
PLATLIPPLIPS	0.554 ± 0.084
GDSSRVGPVGRA	0.714
LSARAKRTVTFL	0.593 ± 0.043
SSFGSALRPRGV	0.677 ± 0.029
PSPLPSPLLTTL	0.6816 ± 0.0062
VAPPSSFPPPRL	0.726 ± 0.056
RPPPPSPAPTPP	0.723 ± 0.045
LLKLSVPPSLYV	0.5722 ± 0.0011
FGYAGGSRVLGS	0.68 ± 0.0095
PPSPAFTTHLPP	0.576 ± 0.0064
SSLLLLFYPPLP	0.712 ± 0.016
ISFVFSDSLFPI	0.785 ± 0.012
SHAATKGSLFNV	0.631 ± 0.0074
ECGLGGGGGLGV	0.689 ± 0.077
PHRPPPCLPFGS	0.728 ± 0.039
SIWLLSGGQCFL	0.684 ± 0.027
RRGEKKDEKGGR	0.67 ± 0.062
TKFSSPPLVRTS	0.71 ± 0.031
WGGAGRVWVLGP	0.696 ± 0.019
PFPPRRPSATTL	0.727 ± 0.045
